Molecular target: the molecule itself
Experiment: crystal structure

B1: ligand-binding domain of GluK2 (GluK2-LBD), S1-GT-S2 construct (domain or fragment, Rattus norvegicus)
chain: NRSLIVTTILEEPYVLFKKSDKPLYGNDRFEGYCIDLLRELSTILGFTYEIRLVEDGKYGAQDDVNGQWNGMVRELIDHKADLAVAPLAITYVREKVIDFSKPFMTLGISILYRKGTPIDSADDLAKQTKIEYGAVEDGATMTFFKKSKISTYDKMWAFMSSRRQSVLVKSNEEGIQRVLTSDYAFLMESTTIEFVTQRNCNLTQIGGLIDSKGYGVGTPMGSPYRDKITIAILQLQEEGKLHMMKEKWWRGNGCP
  stoichiometry N: 2
